Patent publication US20210071139A1

Legend:
Assay in all cases: TOX IP-MS, EL4 nuclear extract, MiST
Sdcbp = Sdcbp (UniProt O08992)
Dmap1 = Dmap1 (UniProt Q9JI44)
Meaf6 = Meaf6 (UniProt Q2VPQ9)
Rpl37a = Rpl37a (UniProt P61514)
Mphosph10 = Mphosph10 (UniProt Q810V0)
Dync1li1 = Dync1li1 (UniProt Q8R1Q8)
Rpl36; Gm8973 = target: Rpl36; Gm8973
Hcfc1 = Hcfc1 (UniProt Q61191)
Zwilch = Zwilch (UniProt Q8R060)
Myef2 = Myef2 (UniProt Q8C854)
Rbm34 = Rbm34 (UniProt Q8C5L7)
Kntc1 = Kntc1 (UniProt Q8C3Y4)
Fubp1 = Fubp1 (UniProt Q91WJ8)
Srrt = Srrt (UniProt Q99MR6)
Chain of Srrt (Q99MR6 2-875 limits assumed): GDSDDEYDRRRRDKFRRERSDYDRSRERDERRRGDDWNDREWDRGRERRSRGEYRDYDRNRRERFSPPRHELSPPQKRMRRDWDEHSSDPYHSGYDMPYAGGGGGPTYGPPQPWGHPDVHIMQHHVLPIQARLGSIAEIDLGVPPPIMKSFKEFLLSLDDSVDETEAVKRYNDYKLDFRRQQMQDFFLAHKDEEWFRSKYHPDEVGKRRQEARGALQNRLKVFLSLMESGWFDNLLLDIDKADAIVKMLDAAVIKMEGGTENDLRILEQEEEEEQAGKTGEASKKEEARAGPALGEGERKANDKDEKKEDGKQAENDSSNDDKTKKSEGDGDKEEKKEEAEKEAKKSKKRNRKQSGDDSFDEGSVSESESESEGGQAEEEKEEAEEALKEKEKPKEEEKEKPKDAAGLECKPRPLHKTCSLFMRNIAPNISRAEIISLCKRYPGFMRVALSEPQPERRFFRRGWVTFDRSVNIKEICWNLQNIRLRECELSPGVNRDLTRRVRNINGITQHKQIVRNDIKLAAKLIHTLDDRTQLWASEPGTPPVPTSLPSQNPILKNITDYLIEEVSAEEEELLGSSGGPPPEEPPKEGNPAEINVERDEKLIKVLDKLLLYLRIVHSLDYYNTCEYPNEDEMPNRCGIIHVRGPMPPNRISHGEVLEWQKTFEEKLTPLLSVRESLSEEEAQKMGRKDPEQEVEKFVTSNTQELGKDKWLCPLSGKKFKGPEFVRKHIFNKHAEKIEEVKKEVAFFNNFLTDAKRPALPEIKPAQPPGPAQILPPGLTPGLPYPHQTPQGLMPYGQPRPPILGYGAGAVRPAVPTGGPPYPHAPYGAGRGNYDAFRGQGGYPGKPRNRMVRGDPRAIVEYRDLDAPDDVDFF

Dnajc9 = Dnajc9 (UniProt Q91WN1)
Thoc5 = Thoc5 (UniProt Q8BKT7)
Cdadc1 = Cdadc1 (UniProt Q8BMD5)
Ppa1 = Ppa1 (UniProt Q9D819)
Mrpl46 = Mrpl46 (UniProt Q9EQI8)
Chain of Mrpl46 (Q9EQI8 whole entry): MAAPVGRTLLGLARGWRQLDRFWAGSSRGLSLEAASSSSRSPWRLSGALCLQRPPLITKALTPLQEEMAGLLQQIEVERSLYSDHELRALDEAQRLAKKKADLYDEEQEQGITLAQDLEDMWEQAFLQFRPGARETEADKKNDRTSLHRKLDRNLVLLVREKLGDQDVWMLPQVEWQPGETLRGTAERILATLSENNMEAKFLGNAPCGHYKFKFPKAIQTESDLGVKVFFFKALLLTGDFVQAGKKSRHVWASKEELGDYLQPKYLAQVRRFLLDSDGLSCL

Cdc73 = Cdc73 (UniProt Q8JZM7)
Utp14a = Utp14a (UniProt Q640M1)
Chain of Utp14a (Q640M1 whole entry): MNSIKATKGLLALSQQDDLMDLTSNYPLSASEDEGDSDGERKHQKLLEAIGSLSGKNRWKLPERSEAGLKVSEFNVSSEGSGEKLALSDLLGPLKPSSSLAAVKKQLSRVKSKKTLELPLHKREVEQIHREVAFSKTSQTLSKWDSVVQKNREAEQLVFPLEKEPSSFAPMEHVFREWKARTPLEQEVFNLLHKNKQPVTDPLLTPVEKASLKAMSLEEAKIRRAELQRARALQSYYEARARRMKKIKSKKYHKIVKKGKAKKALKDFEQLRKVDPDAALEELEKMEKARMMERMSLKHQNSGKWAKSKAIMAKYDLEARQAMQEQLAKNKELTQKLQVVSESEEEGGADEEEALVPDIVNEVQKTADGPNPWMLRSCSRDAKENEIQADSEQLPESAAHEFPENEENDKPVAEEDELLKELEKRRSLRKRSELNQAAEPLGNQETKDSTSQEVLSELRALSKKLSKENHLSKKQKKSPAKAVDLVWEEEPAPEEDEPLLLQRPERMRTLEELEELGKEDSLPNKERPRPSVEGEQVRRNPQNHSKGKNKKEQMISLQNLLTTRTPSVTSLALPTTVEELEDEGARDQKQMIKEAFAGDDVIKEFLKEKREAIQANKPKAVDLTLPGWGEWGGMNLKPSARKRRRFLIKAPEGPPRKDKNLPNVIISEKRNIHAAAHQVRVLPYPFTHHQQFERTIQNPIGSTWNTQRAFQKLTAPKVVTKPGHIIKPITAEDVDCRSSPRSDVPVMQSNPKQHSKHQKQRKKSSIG

Acot8 = Acot8 (UniProt P58137)
Chain of Acot8 (P58137 whole entry): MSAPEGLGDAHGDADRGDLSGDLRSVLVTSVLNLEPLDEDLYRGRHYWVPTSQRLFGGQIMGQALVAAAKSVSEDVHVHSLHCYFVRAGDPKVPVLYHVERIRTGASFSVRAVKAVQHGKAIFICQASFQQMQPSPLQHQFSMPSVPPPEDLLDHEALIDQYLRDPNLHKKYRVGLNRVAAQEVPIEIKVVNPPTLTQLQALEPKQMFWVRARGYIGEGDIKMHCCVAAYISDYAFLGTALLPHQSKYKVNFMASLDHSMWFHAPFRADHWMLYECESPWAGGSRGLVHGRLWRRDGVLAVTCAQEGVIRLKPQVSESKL

Rrp8 = Rrp8 (UniProt Q9DB85)
Rcn2 = Rcn2 (UniProt Q8BP92)
Cad = Cad (UniProt B2RQC6)
Ikbkap = Ikbkap (UniProt Q7TT37)
Orc5 = Orc5 (UniProt Q9WUV0)

Chain of Kntc1 (Q8C3Y4 whole entry): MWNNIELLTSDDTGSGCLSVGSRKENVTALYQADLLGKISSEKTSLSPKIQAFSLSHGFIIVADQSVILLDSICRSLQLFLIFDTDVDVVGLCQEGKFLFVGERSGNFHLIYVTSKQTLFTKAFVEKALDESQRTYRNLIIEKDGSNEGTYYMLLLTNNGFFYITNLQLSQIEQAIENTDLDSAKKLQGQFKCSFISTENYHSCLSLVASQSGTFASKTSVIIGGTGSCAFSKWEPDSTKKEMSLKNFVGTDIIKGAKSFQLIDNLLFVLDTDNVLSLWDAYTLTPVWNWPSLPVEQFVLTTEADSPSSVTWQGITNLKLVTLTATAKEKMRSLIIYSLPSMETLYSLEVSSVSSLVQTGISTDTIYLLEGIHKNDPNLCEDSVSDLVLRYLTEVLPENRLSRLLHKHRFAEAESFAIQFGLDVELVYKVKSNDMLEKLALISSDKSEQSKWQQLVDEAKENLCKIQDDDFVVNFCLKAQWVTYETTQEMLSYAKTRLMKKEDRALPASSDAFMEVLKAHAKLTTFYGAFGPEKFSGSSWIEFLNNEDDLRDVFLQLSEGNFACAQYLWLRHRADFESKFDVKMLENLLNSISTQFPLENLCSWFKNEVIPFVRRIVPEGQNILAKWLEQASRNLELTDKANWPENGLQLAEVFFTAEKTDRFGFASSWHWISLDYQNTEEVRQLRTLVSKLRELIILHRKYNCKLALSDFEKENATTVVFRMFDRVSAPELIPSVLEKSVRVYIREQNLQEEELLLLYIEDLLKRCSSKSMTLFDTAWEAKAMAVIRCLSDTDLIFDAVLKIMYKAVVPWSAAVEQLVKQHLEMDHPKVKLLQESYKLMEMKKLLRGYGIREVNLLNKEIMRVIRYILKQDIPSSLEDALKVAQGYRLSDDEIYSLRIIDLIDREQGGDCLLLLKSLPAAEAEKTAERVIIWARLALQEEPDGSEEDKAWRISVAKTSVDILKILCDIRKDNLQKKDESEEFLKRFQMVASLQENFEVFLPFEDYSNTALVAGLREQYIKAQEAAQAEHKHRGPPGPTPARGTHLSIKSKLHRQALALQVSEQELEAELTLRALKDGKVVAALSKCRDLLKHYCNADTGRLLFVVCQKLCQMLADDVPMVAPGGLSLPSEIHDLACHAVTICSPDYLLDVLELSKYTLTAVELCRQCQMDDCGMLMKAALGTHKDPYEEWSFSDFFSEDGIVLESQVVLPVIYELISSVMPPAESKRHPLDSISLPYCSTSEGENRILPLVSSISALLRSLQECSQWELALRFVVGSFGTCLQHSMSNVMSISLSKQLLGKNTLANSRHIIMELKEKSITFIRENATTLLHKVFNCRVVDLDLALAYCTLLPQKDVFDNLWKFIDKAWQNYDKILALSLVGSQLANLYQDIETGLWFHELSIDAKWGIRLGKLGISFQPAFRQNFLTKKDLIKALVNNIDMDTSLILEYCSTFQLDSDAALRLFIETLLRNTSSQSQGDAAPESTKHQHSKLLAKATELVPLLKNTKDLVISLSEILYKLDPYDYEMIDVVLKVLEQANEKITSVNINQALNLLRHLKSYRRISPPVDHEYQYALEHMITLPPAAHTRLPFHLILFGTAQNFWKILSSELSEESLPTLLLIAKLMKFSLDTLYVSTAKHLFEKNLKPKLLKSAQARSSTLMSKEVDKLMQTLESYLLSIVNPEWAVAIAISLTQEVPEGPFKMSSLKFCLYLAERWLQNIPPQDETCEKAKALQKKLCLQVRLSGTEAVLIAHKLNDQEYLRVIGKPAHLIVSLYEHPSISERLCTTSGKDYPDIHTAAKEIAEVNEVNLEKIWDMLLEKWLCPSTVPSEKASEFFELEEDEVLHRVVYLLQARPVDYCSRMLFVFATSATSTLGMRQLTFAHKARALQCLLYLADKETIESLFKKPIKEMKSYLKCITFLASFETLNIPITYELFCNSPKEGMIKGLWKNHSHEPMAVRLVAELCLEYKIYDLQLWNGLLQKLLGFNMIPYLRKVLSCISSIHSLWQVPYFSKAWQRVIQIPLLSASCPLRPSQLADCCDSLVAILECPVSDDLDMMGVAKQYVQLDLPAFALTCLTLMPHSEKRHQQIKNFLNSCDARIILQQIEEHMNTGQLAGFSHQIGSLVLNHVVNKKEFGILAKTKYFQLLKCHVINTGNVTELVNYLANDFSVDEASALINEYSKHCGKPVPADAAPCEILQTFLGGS
Chain of Zwilch (Q8R060 whole entry): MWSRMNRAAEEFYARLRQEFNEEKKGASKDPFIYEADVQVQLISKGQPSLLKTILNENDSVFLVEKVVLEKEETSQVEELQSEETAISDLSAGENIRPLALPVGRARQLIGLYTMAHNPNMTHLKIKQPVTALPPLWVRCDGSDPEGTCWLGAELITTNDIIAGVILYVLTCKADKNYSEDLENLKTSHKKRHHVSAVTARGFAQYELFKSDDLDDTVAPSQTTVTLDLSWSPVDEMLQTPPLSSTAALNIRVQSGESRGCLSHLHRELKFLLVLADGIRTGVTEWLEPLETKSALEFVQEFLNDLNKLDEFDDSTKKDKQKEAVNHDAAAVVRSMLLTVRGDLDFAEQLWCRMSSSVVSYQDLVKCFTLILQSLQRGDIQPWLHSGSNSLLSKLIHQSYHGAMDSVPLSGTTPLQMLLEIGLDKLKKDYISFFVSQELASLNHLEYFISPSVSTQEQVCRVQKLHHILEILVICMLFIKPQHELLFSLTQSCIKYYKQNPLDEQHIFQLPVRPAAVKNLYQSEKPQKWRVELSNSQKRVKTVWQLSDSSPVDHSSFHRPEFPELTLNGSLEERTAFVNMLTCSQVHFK

Tox (from UniProt Q66JW3 1-526)
Abundance (Sdcbp): 5.96e-05 | MiST Score (Sdcbp): 0.957 | Reproducibility (Sdcbp): 0.88 | Specificity (Sdcbp): 1 | Abundance (Dmap1): 6.59e-06 | MiST Score (Dmap1): 0.904 | Reproducibility (Dmap1): 0.709 | Specificity (Dmap1): 1 | Abundance (Meaf6): 5.46e-05 | MiST Score (Meaf6): 0.968 | Reproducibility (Meaf6): 0.916 | Specificity (Meaf6): 1 | Abundance (Rpl37a): 0.00127 | MiST Score (Rpl37a): 0.911 | Reproducibility (Rpl37a): 0.731 | Specificity (Rpl37a): 1 | Abundance (Mphosph10): 1.33e-05 | MiST Score (Mphosph10): 0.97 | Reproducibility (Mphosph10): 0.924 | Specificity (Mphosph10): 1 | Abundance (Dync1li1): 5.91e-06 | MiST Score (Dync1li1): 0.976 | Reproducibility (Dync1li1): 0.941 | Specificity (Dync1li1): 1 | Abundance (Rpl36; Gm8973): 0.00269 | MiST Score (Rpl36; Gm8973): 0.928 | Reproducibility (Rpl36; Gm8973): 0.855 | Specificity (Rpl36; Gm8973): 0.969 | Abundance (Hcfc1): 4.9e-07 | MiST Score (Hcfc1): 0.964 | Reproducibility (Hcfc1): 0.901 | Specificity (Hcfc1): 1 | Abundance (Zwilch): 6.62e-05 | MiST Score (Zwilch): 0.895 | Reproducibility (Zwilch): 0.729 | Specificity (Zwilch): 0.978 | Abundance (Myef2): 3.8e-06 | MiST Score (Myef2): 0.993 | Reproducibility (Myef2): 0.998 | Specificity (Myef2): 1 | Abundance (Rbm34): 4.09e-05 | MiST Score (Rbm34): 0.962 | Reproducibility (Rbm34): 0.895 | Specificity (Rbm34): 1 | Abundance (Kntc1): 2.82e-06 | MiST Score (Kntc1): 0.897 | Reproducibility (Kntc1): 0.686 | Specificity (Kntc1): 1 | Abundance (Fubp1): 4.54e-06 | MiST Score (Fubp1): 0.984 | Reproducibility (Fubp1): 0.966 | Specificity (Fubp1): 1 | Abundance (Srrt): 2.3e-06 | MiST Score (Srrt): 0.913 | Reproducibility (Srrt): 0.953 | Specificity (Srrt): 0.903 | Abundance (Dnajc9): 5.16e-05 | MiST Score (Dnajc9): 0.961 | Reproducibility (Dnajc9): 0.892 | Specificity (Dnajc9): 1 | Abundance (Thoc5): 3.93e-06 | MiST Score (Thoc5): 0.987 | Reproducibility (Thoc5): 0.977 | Specificity (Thoc5): 1 | Abundance (Cdadc1): 0.00034 | MiST Score (Cdadc1): 0.95 | Reproducibility (Cdadc1): 0.882 | Specificity (Cdadc1): 0.988 | Abundance (Ppa1): 8.43e-06 | MiST Score (Ppa1): 0.994 | Reproducibility (Ppa1): 0.999 | Specificity (Ppa1): 1 | Abundance (Mrpl46): 3.3e-05 | MiST Score (Mrpl46): 0.982 | Reproducibility (Mrpl46): 0.962 | Specificity (Mrpl46): 1 | Abundance (Cdc73): 4.06e-05 | MiST Score (Cdc73): 0.896 | Reproducibility (Cdc73): 0.886 | Specificity (Cdc73): 0.908 | Abundance (Utp14a): 3.2e-06 | MiST Score (Utp14a): 0.93 | Reproducibility (Utp14a): 0.792 | Specificity (Utp14a): 1 | Abundance (Acot8): 2.29e-05 | MiST Score (Acot8): 0.989 | Reproducibility (Acot8): 0.983 | Specificity (Acot8): 1 | Abundance (Rrp8): 4.13e-06 | MiST Score (Rrp8): 0.969 | Reproducibility (Rrp8): 0.919 | Specificity (Rrp8): 1 | Abundance (Rcn2): 1.4e-05 | MiST Score (Rcn2): 0.992 | Reproducibility (Rcn2): 0.993 | Specificity (Rcn2): 1 | Abundance (Cad): 2.65e-07 | MiST Score (Cad): 0.906 | Reproducibility (Cad): 0.714 | Specificity (Cad): 1 | Abundance (Ikbkap): 1.13e-06 | MiST Score (Ikbkap): 0.913 | Reproducibility (Ikbkap): 0.737 | Specificity (Ikbkap): 1 | Abundance (Orc5): 2.13e-06 | MiST Score (Orc5): 0.985 | Reproducibility (Orc5): 0.971 | Specificity (Orc5): 1
